Assay results taken from publication PMC7020754.

T1: Rv0023 (XRE family transcription regulator) (Mycobacterium tuberculosis, UniProt P9WMI3 1-256)
T1 sequence: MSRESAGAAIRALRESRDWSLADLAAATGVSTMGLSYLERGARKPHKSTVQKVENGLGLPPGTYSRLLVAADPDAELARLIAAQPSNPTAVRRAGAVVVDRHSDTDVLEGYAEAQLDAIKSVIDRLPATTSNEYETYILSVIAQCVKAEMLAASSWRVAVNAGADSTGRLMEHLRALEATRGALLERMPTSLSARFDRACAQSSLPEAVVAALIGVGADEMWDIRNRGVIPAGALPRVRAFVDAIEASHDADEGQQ

B1: M0 (dsDNA)
DNA 1: AGAGCCCGCCACAGACATATACGCTTTTGCCTATGTTTC
DNA 2: GAAACATAGGCAAAAGCGTATATGTCTGTGGCGGGCTCT
B2: M1 (dsDNA)
DNA 1: AGAGCCCGCCACAGACAGATACGCTTTTGCCTATGTTTC
DNA 2: GAAACATAGGCAAAAGCGTATCTGTCTGTGGCGGGCTCT
B3: M4 (dsDNA)
DNA 1: AGAGCCCGCCACAGACATATGCGCTTTTGCCTATGTTTC
DNA 2: GAAACATAGGCAAAAGCGCATATGTCTGTGGCGGGCTCT
B4: M5 (dsDNA)
DNA 1: AGAGCCCGCCACAGACATATACGCGTTTGCCTATGTTTC
DNA 2: GAAACATAGGCAAACGCGTATATGTCTGTGGCGGGCTCT
B5: M9 (dsDNA)
DNA 1: AGAGCCCGCCACAGACATATACTCTTTTGCCTATGTTTC
DNA 2: GAAACATAGGCAAAAGAGTATATGTCTGTGGCGGGCTCT
B6: M10 (dsDNA)
DNA 1: AGAGCCCGCCACAGACATATATGCTTTTGCCTATGTTTC
DNA 2: GAAACATAGGCAAAAGCATATATGTCTGTGGCGGGCTCT
B7: F6 (dsDNA)
DNA 1: GCTCAGGCCCATGGTGCTTACGCCAGTGGCGGCCGCCAGGTCCGCGAGGGACCAGTCACG
DNA 2: CGTGACTGGTCCCTCGCGGACCTGGCGGCCGCCACTGGCGTAAGCACCATGGGCCTGAGC
B8: OL1 (dsDNA)
DNA 1: CACCCCTTATGTATATACGTTTTTATCGCGATTCTCTTGC
DNA 2: GCAAGAGAATCGCGATAAAAACGTATATACATAAGGGGTG
B9: OL2 (dsDNA)
DNA 1: TTTTATCGCGATTCTCTTGCAGAGCCCGCCACAGACATAT
DNA 2: ATATGTCTGTGGCGGGCTCTGCAAGAGAATCGCGATAAAA
B10: OL3 (dsDNA)
DNA 1: AGAGCCCGCCACAGACATATACGCTTTTGCCTATGTTTCG
DNA 2: CGAAACATAGGCAAAAGCGTATATGTCTGTGGCGGGCTCT
B11: OL4 (dsDNA)
DNA 1: ACGCTTTTGCCTATGTTTCGTTCAACAAGGAGGCCGGCAC
DNA 2: GTGCCGGCCTCCTTGTTGAACGAAACATAGGCAAAAGCGT
B12: OL5 (dsDNA)
DNA 1: ATTCTCTTGCAGAGCCCGCCACAGACATATACGCTTTTGC
DNA 2: GCAAAAGCGTATATGTCTGTGGCGGGCTCTGCAAGAGAAT
B13: F1 (dsDNA)
DNA 1: AGAGCCCGCCACAGACATATACGCTTTTGCCTATGTTTCGTTCAACAAGGAGGCCGGCAC
DNA 2: GTGCCGGCCTCCTTGTTGAACGAAACATAGGCAAAAGCGTATATGTCTGTGGCGGGCTCT
B14: F2 (dsDNA)
DNA 1: CACCCCTTATGTATATACGTTTTTATCGCGATTCTCTTGCAGAGCCCGCCACAGACATAT
DNA 2: ATATGTCTGTGGCGGGCTCTGCAAGAGAATCGCGATAAAAACGTATATACATAAGGGGTG
B15: F3 (dsDNA)
DNA 1: CCATAAGCCGGATACTACCCGGATACGACTCGGCCGCGGCCACCCCTTATGTATATACGT
DNA 2: ACGTATATACATAAGGGGTGGCCGCGGCCGAGTCGTATCCGGGTAGTATCCGGCTTATGG
B16: F4 (dsDNA)
DNA 1: TGGCCGCGCCGGCCGACTCACGGCTCACCGCACGCTCCGGCCATAAGCCGGATACTACCC
DNA 2: GGGTAGTATCCGGCTTATGGCCGGAGCGTGCGGTGAGCCGTGAGTCGGCCGGCGCGGCCA
B17: F5 (dsDNA)
DNA 1: TCCGCGAGGGACCAGTCACGCGACTCGCGAAGTGCGCGAATGGCCGCGCCGGCCGACTCA
DNA 2: TGAGTCGGCCGGCGCGGCCATTCGCGCACTTCGCGAGTCGCGTGACTGGTCCCTCGCGGA

Biological target: T1, Rv0023 (XRE family transcription …)
Test: EMSA; 8 pmol protein
Conditions: protein: recombinant; tags: His (implied by Ni-NTA purification; pET23a, also printed pET21b); chain copies: 2; label: 32P

| Binder | binding result |
| --- | --- |
| B1 | binds |
| B2 | binds |
| B3 | binds |
| B4 | binds |
| B5 | binds |
| B6 | binds |

Same assay, conditions: protein: recombinant; tags: His (implied by Ni-NTA purification; pET23a, also printed pET21b); chain copies: 2; label: 32P; blunt

| Binder | binding result |
| --- | --- |
| B7 | no binding |
| B8 | binds |
| B9 | no binding |
| B10 | binds |
| B11 | no binding |
| B12 | no binding |
| B13 | binds |
| B14 | binds |
| B15 | no binding |
| B16 | no binding |
| B17 | no binding |
